Laboratory results: paper PMC9482650, “Quantitative fragmentomics allow affinity mapping of interactomes” (Nature Communications, 2022)

What was measured:
Assay in all cases: holdup assay
Design in all cases: key: below the threshold = too weak to quantify, mostly under pKd 3.1 to 4
RAPGEF6, Q8TEU7 = target: T1, RAPGEF6, Q8TEU7
T1 sequence (Q8TEU7 525-625, limits assumed, looked up): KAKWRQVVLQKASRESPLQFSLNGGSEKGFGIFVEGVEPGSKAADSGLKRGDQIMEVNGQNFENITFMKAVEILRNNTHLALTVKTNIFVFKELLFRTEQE

GRIP2_7, Q9C0E4 = target: GRIP2_7, Q9C0E4
FRMPD2_3, Q68DX3 = target: FRMPD2_3, Q68DX3
MPDZ_5, O75970 = target: T2, MPDZ_5, O75970
T2 sequence (O75970 695-796, limits assumed, looked up): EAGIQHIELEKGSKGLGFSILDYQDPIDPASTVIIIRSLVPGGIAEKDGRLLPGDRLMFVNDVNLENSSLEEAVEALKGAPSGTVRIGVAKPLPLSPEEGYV

GRIP2_3, Q9C0E4 = target: GRIP2_3, Q9C0E4
DLG2_2, Q15700 = target: DLG2_2, Q15700
LNX2_3, Q8N448 = target: T3, LNX2_3, Q8N448
T3 sequence (Q8N448 463-564, limits assumed, looked up): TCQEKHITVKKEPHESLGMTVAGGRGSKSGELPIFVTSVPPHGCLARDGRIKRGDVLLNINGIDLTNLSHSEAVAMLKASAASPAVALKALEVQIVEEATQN

DFNB31_3, Q9P202 = target: T4, DFNB31_3, Q9P202
T4 sequence (Q9P202 811-907, limits assumed, looked up): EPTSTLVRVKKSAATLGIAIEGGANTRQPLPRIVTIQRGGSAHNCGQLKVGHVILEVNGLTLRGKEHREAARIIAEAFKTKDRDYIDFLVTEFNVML

DLG3_3, Q92796 = target: T5, DLG3_3, Q92796
T5 sequence (Q92796 374-475, limits assumed, looked up): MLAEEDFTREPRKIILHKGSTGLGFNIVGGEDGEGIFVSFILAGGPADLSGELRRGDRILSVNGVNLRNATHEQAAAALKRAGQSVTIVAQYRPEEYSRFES

MPDZ_12, O75970 = target: T6, MPDZ_12, O75970
T6 sequence (O75970 1857-1958, limits assumed, looked up): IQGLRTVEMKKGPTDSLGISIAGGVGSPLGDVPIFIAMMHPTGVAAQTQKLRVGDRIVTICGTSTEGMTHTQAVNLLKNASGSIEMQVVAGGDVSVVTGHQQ

NHERF4_1, Q86UT5-2 = target: NHERF4_1, Q86UT5-2
NOS1, P29475 = target: NOS1, P29475
PDZD2_2, O15018 = target: T7, PDZD2_2, O15018
T7 sequence (O15018 329-429, limits assumed, looked up): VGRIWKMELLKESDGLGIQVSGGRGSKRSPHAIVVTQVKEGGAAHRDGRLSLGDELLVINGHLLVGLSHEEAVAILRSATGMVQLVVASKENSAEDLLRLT

SNX27, Q96L92 = target: SNX27, Q96L92
RHPN1, Q8TCX5 = target: T8, RHPN1, Q8TCX5
T8 sequence (Q8TCX5 508-602, limits assumed, looked up): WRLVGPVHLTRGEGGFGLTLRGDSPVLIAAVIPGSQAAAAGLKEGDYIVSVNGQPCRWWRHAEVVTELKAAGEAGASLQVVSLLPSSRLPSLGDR

LNX1_2, Q8TBB1 = target: LNX1_2, Q8TBB1
GRIP1_2, Q9Y3R0 = target: T9, GRIP1_2, Q9Y3R0
T9 sequence (Q9Y3R0 145-248, limits assumed, looked up): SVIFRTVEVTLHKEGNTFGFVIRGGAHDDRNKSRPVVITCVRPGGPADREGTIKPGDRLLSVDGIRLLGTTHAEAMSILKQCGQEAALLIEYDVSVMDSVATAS

APBA2_1, Q99767 = target: T10, APBA2_1, Q99767
T10 sequence (Q99767 563-664, limits assumed, looked up): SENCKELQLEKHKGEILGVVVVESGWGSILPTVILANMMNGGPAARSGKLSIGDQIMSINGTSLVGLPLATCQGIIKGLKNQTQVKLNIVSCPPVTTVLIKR

AHNAK1, Q09666 = target: AHNAK1, Q09666
Inadl_8, Q8NI35 = target: Inadl_8, Q8NI35
HTRA2, O43464 = target: HTRA2, O43464
PTPN13_1, Q12923 = target: T11, PTPN13_1, Q12923
T11 sequence (Q12923 1088-1188, limits assumed, looked up): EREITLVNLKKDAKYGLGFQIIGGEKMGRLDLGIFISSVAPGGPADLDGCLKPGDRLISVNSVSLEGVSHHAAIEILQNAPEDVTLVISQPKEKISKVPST

FRMPD1, Q5SYB0 = target: T12, FRMPD1, Q5SYB0
T12 sequence (Q5SYB0 52-145, limits assumed, looked up): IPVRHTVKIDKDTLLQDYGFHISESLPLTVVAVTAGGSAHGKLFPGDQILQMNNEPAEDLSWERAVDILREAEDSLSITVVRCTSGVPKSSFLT

MAGI2_2, Q86UL8 = target: MAGI2_2, Q86UL8
[1] = plain residues with an end cap or a label only (N-terminal biotin on a linker: ado-ado)
[2] = modified: phospho on T at position -2 from the C-terminal residue

Measured: pKd

Chain of HTRA2, O43464 (O43464 355-458): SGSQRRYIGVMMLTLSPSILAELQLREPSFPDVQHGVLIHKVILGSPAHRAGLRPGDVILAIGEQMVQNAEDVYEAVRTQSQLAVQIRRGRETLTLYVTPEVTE
Chain of AHNAK1, Q09666 (Q09666 4-100): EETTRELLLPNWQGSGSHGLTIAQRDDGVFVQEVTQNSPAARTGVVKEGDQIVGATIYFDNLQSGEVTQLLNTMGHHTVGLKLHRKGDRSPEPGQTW
Chain of LNX1_2, Q8TBB1 (Q8TBB1 371-470): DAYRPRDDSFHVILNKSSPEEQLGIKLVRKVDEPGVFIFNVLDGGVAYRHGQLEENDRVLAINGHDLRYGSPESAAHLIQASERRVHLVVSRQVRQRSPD
Chain of NOS1, P29475 (P29475 9-101): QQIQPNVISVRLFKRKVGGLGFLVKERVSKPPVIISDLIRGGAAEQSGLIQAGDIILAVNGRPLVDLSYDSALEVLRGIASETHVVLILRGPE
Chain of FRMPD2_3, Q68DX3 (Q68DX3 1073-1166): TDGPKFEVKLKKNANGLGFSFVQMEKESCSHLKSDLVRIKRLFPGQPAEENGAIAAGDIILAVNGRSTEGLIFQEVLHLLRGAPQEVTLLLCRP
Chain of DLG2_2, Q15700 (Q15700 189-283): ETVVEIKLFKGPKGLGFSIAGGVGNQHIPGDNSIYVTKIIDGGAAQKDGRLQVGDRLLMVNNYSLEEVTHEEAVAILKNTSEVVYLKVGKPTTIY
Chain of MAGI2_2, Q86UL8 (Q86UL8 410-522): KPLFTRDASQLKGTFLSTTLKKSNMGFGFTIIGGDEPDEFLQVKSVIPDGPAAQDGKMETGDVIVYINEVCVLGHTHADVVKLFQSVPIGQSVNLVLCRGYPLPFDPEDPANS
Chain of Inadl_8, Q8NI35 (Q8NI35 1425-1530): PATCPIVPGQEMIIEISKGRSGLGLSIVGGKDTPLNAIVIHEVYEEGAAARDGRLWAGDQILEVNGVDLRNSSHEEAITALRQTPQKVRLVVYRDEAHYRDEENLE
Chain of GRIP2_7, Q9C0E4 (Q9C0E4 934-1023): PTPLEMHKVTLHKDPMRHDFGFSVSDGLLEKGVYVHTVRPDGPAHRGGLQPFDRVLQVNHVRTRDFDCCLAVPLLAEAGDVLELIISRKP
Chain of GRIP2_3, Q9C0E4 (Q9C0E4 238-339): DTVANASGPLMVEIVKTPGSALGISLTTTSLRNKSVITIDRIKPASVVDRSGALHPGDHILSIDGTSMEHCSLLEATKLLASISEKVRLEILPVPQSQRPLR
Chain of NHERF4_1, Q86UT5-2 (Q86UT5 other isoform, or with tags, fused parts or gaps): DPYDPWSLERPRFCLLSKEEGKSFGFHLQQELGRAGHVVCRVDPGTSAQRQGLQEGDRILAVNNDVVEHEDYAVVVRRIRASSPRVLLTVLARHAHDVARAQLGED

B1: NLGN2, Q8NFZ4 (peptide)
chain: LPHPHSTTRV
5.41: SNX27, Q96L92; [1]
3.86: DLG3_3, Q92796; [1]
4.39: Inadl_8, Q8NI35; [1]
4.93: MAGI2_2, Q86UL8; [1]
3.83: RHPN1, Q8TCX5; [1]
below the threshold: RAPGEF6, Q8TEU7; [1] | GRIP2_7, Q9C0E4; [1] | FRMPD2_3, Q68DX3; [1] | MPDZ_5, O75970; [1] | LNX2_3, Q8N448; [1] | DFNB31_3, Q9P202; [1] | MPDZ_12, O75970; [1] | NHERF4_1, Q86UT5-2; [1] | PDZD2_2, O15018; [1] | LNX1_2, Q8TBB1; [1] | GRIP1_2, Q9Y3R0; [1] | APBA2_1, Q99767; [1] | AHNAK1, Q09666; [1] | HTRA2, O43464; [1] | PTPN13_1, Q12923; [1] | FRMPD1, Q5SYB0; [1]
3.63: NOS1, P29475; [1]
3.52: GRIP2_3, Q9C0E4; [1]
3.59: DLG2_2, Q15700; [1]

B2: CCDC134, Q9H6E4 (peptide)
chain: PRISRSQSEL
3.86: NHERF4_1, Q86UT5-2; [1]
3.48: DFNB31_3, Q9P202; [1]
3.66: PDZD2_2, O15018; [1]
below the threshold: RAPGEF6, Q8TEU7; [1] | GRIP2_7, Q9C0E4; [1] | FRMPD2_3, Q68DX3; [1] | MPDZ_5, O75970; [1] | GRIP2_3, Q9C0E4; [1] | DLG2_2, Q15700; [1] | LNX2_3, Q8N448; [1] | DLG3_3, Q92796; [1] | MPDZ_12, O75970; [1] | NOS1, P29475; [1] | SNX27, Q96L92; [1] | RHPN1, Q8TCX5; [1] | LNX1_2, Q8TBB1; [1] | GRIP1_2, Q9Y3R0; [1] | APBA2_1, Q99767; [1] | AHNAK1, Q09666; [1] | Inadl_8, Q8NI35; [1] | HTRA2, O43464; [1] | PTPN13_1, Q12923; [1] | FRMPD1, Q5SYB0; [1]
3.85: MAGI2_2, Q86UL8; [1]

B3: HPV18-E6_-2P, P06463 (peptide)
chain: RLQRRRETQV
below the threshold: RAPGEF6, Q8TEU7; [2] | GRIP2_7, Q9C0E4; [2] | FRMPD2_3, Q68DX3; [2] | MPDZ_5, O75970; [2] | GRIP2_3, Q9C0E4; [2] | LNX2_3, Q8N448; [2] | MPDZ_12, O75970; [2] | PDZD2_2, O15018; [2] | RHPN1, Q8TCX5; [2] | LNX1_2, Q8TBB1; [2] | GRIP1_2, Q9Y3R0; [2] | APBA2_1, Q99767; [2] | AHNAK1, Q09666; [2] | Inadl_8, Q8NI35; [2] | HTRA2, O43464; [2] | PTPN13_1, Q12923; [2] | FRMPD1, Q5SYB0; [2] | MAGI2_2, Q86UL8; [2]
3.48: DLG2_2, Q15700; [2]
3.61: SNX27, Q96L92; [2]
3.52: DLG3_3, Q92796; [2]
3.6: NHERF4_1, Q86UT5-2; [2]
3.75: NOS1, P29475; [2]
3.9: DFNB31_3, Q9P202; [2]
